Molecular target: preformed microtubules (polymerized tubulin, paclitaxel-stabilised) (UniProt P02550)
Test: co-sedimentation; microtubule spin-down: 1 μM tau with paclitaxel-stabilised preformed microtubules in general tubulin buffer (80 mM PIPES pH 7.0, 1 mM MgCl2, 1 mM EGTA), 30 min at RT, through a sucrose cushion at 100,000 RCF for 40 min, pellet washed twice; tau (Tau5) and tubulin (5H1) in supernatant and pellet by Western blot; % tau in pellet

Chain of UniProt P02550 (P02550 whole entry, looked up): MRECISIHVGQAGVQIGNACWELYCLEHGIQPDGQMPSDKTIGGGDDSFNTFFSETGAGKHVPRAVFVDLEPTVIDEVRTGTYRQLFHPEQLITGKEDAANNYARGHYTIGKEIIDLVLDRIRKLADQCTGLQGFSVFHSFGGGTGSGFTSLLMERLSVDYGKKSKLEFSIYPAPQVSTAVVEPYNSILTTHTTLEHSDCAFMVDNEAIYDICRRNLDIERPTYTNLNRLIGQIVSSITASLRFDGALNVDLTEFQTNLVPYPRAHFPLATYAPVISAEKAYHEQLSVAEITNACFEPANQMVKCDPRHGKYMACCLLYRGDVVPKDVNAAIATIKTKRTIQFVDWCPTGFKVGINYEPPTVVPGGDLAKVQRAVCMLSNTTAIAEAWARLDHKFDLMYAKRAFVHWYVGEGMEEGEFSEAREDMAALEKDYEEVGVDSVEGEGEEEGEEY

percent decrease of tau in the pelleted microtubule fraction relative to unmodified hT39: 45%
Substance: O-GlcNAc modified hT39 (Glc hT39, 2N3R tau) (from UniProt P10636-5 1-410) (natural protein)

Reference: paper PMC11927755
